Assay results taken from paper PMC6327030, “Structure and inhibition mechanism of the catalytic domain of human squalene epoxidase” (Nature Communications, 2019).

Legend:
[1] = substrate: CC(C)=CCC/C(C)=C/CC/C(C)=C/CC/C=C(\C)CC/C=C(\C)CCC=C(C)C; assay: purified protein, by the assay type; settings: varied squalene, saturating FAD
[2] = substrate: CC(C)=CCC/C(C)=C/CC/C(C)=C/CC/C=C(\C)CC/C=C(\C)CCC=C(C)C; assay: cells, lysate or membranes named; settings: other: SQLE baculosome; varied squalene, saturating FAD; pH 7.0

B1: recombinant N-terminally truncated SQLE (118–574) (Homo sapiens) (protein)
chain: TSSQNDPEVIIVGAGVLGSALAAVLSRDGRKVTVIERDLKEPDRIVGEFLQPGGYHVLKDLGLGDTVEGLDAQVVNGYMIHDQESKSEVQIPYPLSENNQVQSGRAFHHGRFIMSLRKAAMAEPNAKFIEGVVLQLLEEDDVVMGVQYKDKETGDIKELHAPLTVVADGLFSKFRKSLVSNKVSVSSHFVGFLMKNAPQFKANHAELILANPSPVLIYQISSSETRVLVDIRGEMPRNLREYMVEKIYPQIPDHLKEPFLEATDNSHLRSMPASFLPPSSVKKRGVLLLGDAYNMRHPLTGGGMTVAFKDIKLWRKLLKGIPDLYDDAAIFEAKKSFYWARKTSHSFVVNILAQALYELFSATDDSLHQLRKACFLYFKLGGECVAGPVGLLSVLSPNPLVLIGHFFAVAIYAVYFCFKSEPWITKPRALLSSGAVLYKACSVIFPLIYSEMKYMVH
Km ([1]; other: SQLE (118–574), pH 8.0): 1.9 ± 0.4 µM
kcat ([1]; other: SQLE (118–574), pH 8.0): 0.0348 s⁻¹
kcat/Km ([1]; other: SQLE (118–574), pH 8.0): 18300 M⁻¹ s⁻¹

B2: baculosome-derived full-length SQLE (Homo sapiens) (protein)
chain: MWTFLGIATFTYFYKKFGDFITLANREVLLCVLVFLSLGLVLSYRCRHRNGGLLGRQQSGSQFALFSDILSGLPFIGFFWAKSPPESENKEQLEARRRRKGTNISETSLIGTAACTSTSSQNDPEVIIVGAGVLGSALAAVLSRDGRKVTVIERDLKEPDRIVGEFLQPGGYHVLKDLGLGDTVEGLDAQVVNGYMIHDQESKSEVQIPYPLSENNQVQSGRAFHHGRFIMSLRKAAMAEPNAKFIEGVVLQLLEEDDVVMGVQYKDKETGDIKELHAPLTVVADGLFSKFRKSLVSNKVSVSSHFVGFLMKNAPQFKANHAELILANPSPVLIYQISSSETRVLVDIRGEMPRNLREYMVEKIYPQIPDHLKEPFLEATDNSHLRSMPASFLPPSSVKKRGVLLLGDAYNMRHPLTGGGMTVAFKDIKLWRKLLKGIPDLYDDAAIFEAKKSFYWARKTSHSFVVNILAQALYELFSATDDSLHQLRKACFLYFKLGGECVAGPVGLLSVLSPNPLVLIGHFFAVAIYAVYFCFKSEPWITKPRALLSSGAVLYKACSVIFPLIYSEMKYMVH
Km [2]: 3.3 ± 0.7 µM
kcat [2]: 0.0233 s⁻¹
kcat/Km [2]: 7080 M⁻¹ s⁻¹

B3: endogenous SQLE in human liver microsomes (Homo sapiens) (protein)
chain: MWTFLGIATFTYFYKKFGDFITLANREVLLCVLVFLSLGLVLSYRCRHRNGGLLGRQQSGSQFALFSDILSGLPFIGFFWAKSPPESENKEQLEARRRRKGTNISETSLIGTAACTSTSSQNDPEVIIVGAGVLGSALAAVLSRDGRKVTVIERDLKEPDRIVGEFLQPGGYHVLKDLGLGDTVEGLDAQVVNGYMIHDQESKSEVQIPYPLSENNQVQSGRAFHHGRFIMSLRKAAMAEPNAKFIEGVVLQLLEEDDVVMGVQYKDKETGDIKELHAPLTVVADGLFSKFRKSLVSNKVSVSSHFVGFLMKNAPQFKANHAELILANPSPVLIYQISSSETRVLVDIRGEMPRNLREYMVEKIYPQIPDHLKEPFLEATDNSHLRSMPASFLPPSSVKKRGVLLLGDAYNMRHPLTGGGMTVAFKDIKLWRKLLKGIPDLYDDAAIFEAKKSFYWARKTSHSFVVNILAQALYELFSATDDSLHQLRKACFLYFKLGGECVAGPVGLLSVLSPNPLVLIGHFFAVAIYAVYFCFKSEPWITKPRALLSSGAVLYKACSVIFPLIYSEMKYMVH
Km ([1]; other: HLMs): 2.9 ± 0.2 µM
